Assay results reported in patent publication US5580760, “FUSE binding protein and cDNA therefor” (The United States of America as represented by the …).

B1: FUSE (dsDNA)
DNA 1: GATCACAAAATAAAAAATCCCGAGGGAATATAG
DNA 2: CTATATTCCCTCGGGATTTTTTATTTTGTGATC

How the values were obtained:
[1] = molecular target: FBP full length (CMV expression) (Homo sapiens) (UniProt Q96AE4); experiment: cell_activity; settings: CAT activation vs empty vector, U937 cells
[2] = molecular target: GST-FBP 278-511 (Homo sapiens, UniProt Q96AE4 SEQ:278-511); experiment: EMSA; same specificity as full length (FIG. 6C); settings: tags: N-terminal GST (pGEX-1); C-terminal KEIEQKVQE; label: 5'-32P
[3] = molecular target: GST alone (UniProt P08515 P08515:1-218); experiment: EMSA; GST control; settings: tags: pGEX-2T without insert; label: 5'-32P
Description: Purified recombinant proteins were incubated with double stranded, ^32P labeled, oligonucleotide (Probe) in the presence or absence of the indicated quantity of unlabeled, double stranded oligonucleotide as competitor, and subjected to EMSA. (M. Fried and D. M. Crothers, *Nucleic Acids Res.* 9, 6505 (1981)).
DNA binding assays were performed with an equivalent amount of GST-FBP or GST alone incubated in 25 mM Tris, 200 mM Glycine, 1 mM EDTA, 0.5 mg/ml BSA, 0.1% Tween20, 10% glycerol, 100 µg/ml poly(dI:dC), and 0.2 ng of labeled probe. The probe was prepared by annealing two complementary synthetic oligonucleotides and 5' end labeling with T_4 polynucleotide kinase in the presence of γ-^32P-ATP. The top strand of the FUSE oligonucleotide was 5'-[…]-3'(SEQ ID NO: 11). The top strand of Mut A was 5'-GATCACAActacgtgctaggacgccGAATATAG-3' (SEQ ID NO: 12) (lower case indicates changes from FUSE oligomer sequence). The top strand of CRE was 5'-[…]-3' (SEQ ID NO: 13). The top strand of CTE was 5'-[…]-3' (SEQ ID NO: 14). Reaction mixtures were incubated 30 minutes at room temperature and protein-DNA complexes resolved by electrophoresis on a 4.2% acrylamide gel in 25 mM Tris, 200 mM Glycine, 1 mM EDTA buffer.

[4] = molecular target: GST-FBP 278-511 insertion mutant 3 (Homo sapiens, UniProt Q96AE4 SEQ:278-511, insertion IRIR after M297); experiment: EMSA; settings: tags: N-terminal GST; C-terminal KEIEQKVQE; label: 5'-32P
[5] = molecular target: GST-FBP 278-372 (Homo sapiens, UniProt Q96AE4 SEQ:278-372); experiment: EMSA; settings: tags: N-terminal GST; label: 5'-32P
[6] = molecular target: GST-FBP 278-511 insertion mutant 1 (Homo sapiens, UniProt Q96AE4 SEQ:278-511, insertion RIR between GST and FBP); experiment: EMSA; settings: tags: N-terminal GST; C-terminal KEIEQKVQE; label: 5'-32P
[7] = molecular target: GST-FBP 278-511 insertion mutant 4 (Homo sapiens, UniProt Q96AE4 SEQ:278-511, Q333 replaced by PRIRE); experiment: EMSA; settings: tags: N-terminal GST; C-terminal KEIEQKVQE; label: 5'-32P
[8] = molecular target: GST-FBP 278-511 insertion mutant 7 (Homo sapiens, UniProt Q96AE4 SEQ:278-511, insertion RIR after 373); experiment: EMSA; settings: tags: N-terminal GST; C-terminal KEIEQKVQE; label: 5'-32P
[9] = molecular target: GST-FBP 278-511 insertion mutant 8 (Homo sapiens, UniProt Q96AE4 SEQ:278-511, insertion RDPA with deletion of QS after 404); experiment: EMSA; settings: tags: N-terminal GST; C-terminal KEIEQKVQE; label: 5'-32P
[10] = molecular target: GST-FBP 278-474 (Homo sapiens, UniProt Q96AE4 SEQ:278-474); experiment: EMSA; settings: tags: N-terminal GST; label: 5'-32P
[11] = molecular target: GST-FBP 278-511 insertion mutant 9 (Homo sapiens, UniProt Q96AE4 SEQ:278-511, insertion RGSG with deletion of P after 475); experiment: EMSA; settings: tags: N-terminal GST; C-terminal KEIEQKVQE; label: 5'-32P
[12] = molecular target: GST-FBP 278-511 insertion mutant 5 (Homo sapiens, UniProt Q96AE4 SEQ:278-511, insertion GIP after 336); experiment: EMSA; settings: tags: N-terminal GST; C-terminal KEIEQKVQE; label: 5'-32P
[13] = molecular target: GST-FBP 278-511 insertion mutant 2 (Homo sapiens, UniProt Q96AE4 SEQ:278-511, insertion IGSRIR after M297); experiment: EMSA; settings: tags: N-terminal GST; C-terminal KEIEQKVQE; label: 5'-32P
[14] = molecular target: GST-FBP 298-511 (Homo sapiens, UniProt Q96AE4 SEQ:298-511); experiment: EMSA; settings: tags: N-terminal GST; C-terminal KEIEQKVQE; label: 5'-32P

Molecule | activity [1] | binding result [2] | binding result [3] | binding result [4] | binding result [5] | binding result [6] | binding result [7] | binding result [8] | binding result [9] | binding result [10] | binding result [11] | binding result [12] | binding result [13] | binding result [14]
myc-CAT reporter with FUSE | 5 fold |  |  |  |  |  |  |  |  |  |  |  |  | 
B1 |  | binds | no binding | no binding | no binding | binds | no binding | binds | no binding | binds | binds | no binding | no binding | no binding
